From publication PMC9671094
pKd: −log10 of the molar value.

Legend:
PG16.VHVL (human) = assay: SPR; IgG captured as ligand by anti-human IgG (Human Antibody Capture Kit) on a GLC chip, ProteOn XPR36; trimer as analyte; 1x HBS-EP+ pH 7.4 with 1 mg/ml BSA; 1:1 binding model; highest SOSIP concentration 5 uM or 10 uM
PG9 (human) = assay: as above
PG16.iGL (human) = assay: as above
PG16 (human) = assay: as above
PG9.HCDR3.1MUT (human) = assay: as above
PG9.iGL.1MUT (human) = assay: as above
PG9.VHVL (human) = assay: as above
[1] = target: PG16.HCDR3 + 1MUT (human); assay: as above
PCT64.iGL (human) = assay: as above
[2] = target: ApexGT2.2MUT trimer (HIV-1 isolate BG505); assay: cryo-EM structure

In the case of BG505 SOSIP.D664 (complex), the pKd (PG16.VHVL (human)) was 6.00, the pKd (PG9 (human)) was 7.80 and the pKd (PG16.iGL (human)) was < 5.30. For the same substance, the pKd (PG16 (human)) was 7.42, the pKd (PG9.HCDR3.1MUT (human)) was 6.50 and the pKd (PG9.iGL.1MUT (human)) was 6.19. The pKd (PG9.VHVL (human)) was 7.14, the pKd [1] was 6.56 and the pKd (PCT64.iGL (human)) was < 5.30.
PCT64 LMCA Fab gave a stoichiometry N (Fab per trimer) [2] of 1.
